The results in this text go back to patent US20240158457A1 (MEDIKINE, published 2024).

B6: IL-18 Binding Protein (IL-18BP) Fc fusion (Fc fusion, not shown: a dimerising Fc or GST)
chain: TPVSQTTTAATASVRSTKDPCPSQPPVFPAAKQCPALEVTWPEVEVPLNGTLSLSCVACSRFPNFSILYWLGNGSFIEHLPGRLWEGSTSRERGSTGTQLCKALVLEQLTPALHSTNFSCVLVDPEQVVQRHVVLAQLWAGLRATLPPTQEALPSSHSSPQQQG

Test [1] concerns the target T1, human IL-18 receptor (alpha and beta subunits) on HEK-BLUE IL-18 reporter cells (human, UniProt Q13478 19-541; O95256 20-599).
T1 sequence (looked up) 1: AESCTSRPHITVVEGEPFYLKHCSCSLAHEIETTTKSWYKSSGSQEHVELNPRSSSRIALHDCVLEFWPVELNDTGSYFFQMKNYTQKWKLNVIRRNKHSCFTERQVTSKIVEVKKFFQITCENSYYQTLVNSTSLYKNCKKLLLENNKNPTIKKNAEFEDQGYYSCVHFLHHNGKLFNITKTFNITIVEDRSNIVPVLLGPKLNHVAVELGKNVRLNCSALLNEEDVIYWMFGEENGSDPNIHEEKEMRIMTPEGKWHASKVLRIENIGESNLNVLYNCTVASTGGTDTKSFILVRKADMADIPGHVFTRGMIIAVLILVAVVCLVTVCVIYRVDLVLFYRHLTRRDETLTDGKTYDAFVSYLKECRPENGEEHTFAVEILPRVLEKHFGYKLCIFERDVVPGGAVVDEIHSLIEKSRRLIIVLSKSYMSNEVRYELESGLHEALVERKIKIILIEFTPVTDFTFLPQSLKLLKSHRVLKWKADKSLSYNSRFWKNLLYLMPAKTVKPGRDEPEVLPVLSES
T1 sequence (looked up) 2: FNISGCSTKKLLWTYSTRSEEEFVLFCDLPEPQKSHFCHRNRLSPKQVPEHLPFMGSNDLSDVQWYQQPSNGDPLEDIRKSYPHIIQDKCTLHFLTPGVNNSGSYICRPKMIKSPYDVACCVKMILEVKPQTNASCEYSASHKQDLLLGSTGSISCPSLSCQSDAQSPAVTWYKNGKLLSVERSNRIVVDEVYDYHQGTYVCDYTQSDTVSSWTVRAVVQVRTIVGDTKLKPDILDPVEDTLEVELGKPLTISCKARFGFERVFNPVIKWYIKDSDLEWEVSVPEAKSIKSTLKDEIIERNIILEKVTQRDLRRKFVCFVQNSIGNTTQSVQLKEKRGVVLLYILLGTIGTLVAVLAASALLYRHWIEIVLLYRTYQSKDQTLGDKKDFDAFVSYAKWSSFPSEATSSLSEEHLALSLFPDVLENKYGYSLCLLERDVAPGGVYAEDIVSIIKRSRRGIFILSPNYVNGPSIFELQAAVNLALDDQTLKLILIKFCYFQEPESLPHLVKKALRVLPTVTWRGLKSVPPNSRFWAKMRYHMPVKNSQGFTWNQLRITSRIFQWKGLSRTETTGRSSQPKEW
Briefly: cell-based or functional assay.

Test [2] has as its target T1, human IL-18 receptor (alpha and beta …). Briefly: cell-based or functional assay. This is another data set of the same source.
The target of test [3] is B6. Briefly: direct binding ELISA; biotinylated peptide on NeutrAvidin, IL-18BP Fc titrated, anti-human IgG Fc-HRP. The procedure:
Binding of synthetic monomer peptides to IL-18 Binding Protein (IL-18BP) was measured using a direct binding ELISA. Briefly, 96-well ELISA plates were coated with NeutrAvidin (NA) at 5 μg per well in PBS, washed, then blocked with PBS containing 1% BSA. Wells were washed and representative peptides, synthesized with a C-terminal biotin were diluted to 300 nM in assay buffer and added to the NA coated wells. Wells were washed and serial dilutions starting at 100 nM of IL-18R subunits, IL-18BP from either of two sources (Acro #ILP-H5253 and R&D #119-BP), and control IgG Fc fusions) were added to the wells and incubated for 1 hr at 4° C. Then plates were washed and goat anti-human IgG Fc-HRP (Southern Biotech #2048-05) detection antibody was added for 1 hr. Wells were developed with TMB for 5-15 min and the enzyme reaction was stopped with a H₂SO₄ solution.
For orientation: An ELISA detects its analyte on a solid surface through an enzyme-linked reagent.

Test [4] concerns the target T2, Human recombinant IL-18 (R&D Systems #9124-IL-050/CF) (human, UniProt Q14116 1-193).
T2 sequence: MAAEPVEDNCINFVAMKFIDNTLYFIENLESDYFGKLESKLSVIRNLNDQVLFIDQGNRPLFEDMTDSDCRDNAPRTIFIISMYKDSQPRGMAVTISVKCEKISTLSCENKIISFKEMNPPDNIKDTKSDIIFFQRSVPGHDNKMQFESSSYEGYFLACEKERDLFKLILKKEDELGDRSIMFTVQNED
Briefly: cell-based or functional assay.

Several values for one entry are separate records, joined by “and”; a condition that tells them apart may be missing. Equal entries are not always repeated. Where two headings read alike, the source gives them in different places. Where no end group is shown, it is not given here.

B1: Dimer 3 (designed binder)
chain: GGLCWYFGGTVRGPCLPAPAPAPAPAPAPAPAFFECFYSPGHEWCIPSGG
modifications: not fully specified; cysteine pairing not given here; also: linker of formula V (drawing, may hold non-peptide parts) between beta and alpha moieties
On to B1, for which, in test [1], the “efficacy (% maximum signal (Emax) vs. IL-18 in reporter assay)” value is 36% and the “potency (EC50), HEK-BLUE IL-18 reporter assay (SEAP)” value (“potency (EC50)” for short) is less than 30 nM. For the same molecule, the “potency (EC50)” value in test [2] is less than 10 nM.
For the molecule GGFFECFYSPGHEWCIPSGG-biotin (cysteine pairing not given here, also called bn7C06) [biotinylated 7C06], the binding result in test [3] is reported as “no binding (tested: 100 nM)”.

B2: Dimer 2 (designed binder)
chain: GGCPNWLSDHLSEIWCPAPAPAPAPAPAPAPAFFECFYSPGHEWCIPSGG
modifications: not fully specified; cysteine pairing not given here; also: linker of formula V (drawing, may hold non-peptide parts) between beta and alpha moieties
Take B2: in test [1], the “efficacy (% maximum signal (Emax) vs. IL-18 in reporter assay)” value was found to be 34%; the “potency (EC50)” value was > 100 nM and < 300 nM.

B3: Dimer 1 (designed binder)
chain: GGCPNWLSDHLSEIWCPAPAPAPAPAPAPAPAICWVPFHYLDELMCTGG
modifications: not fully specified; cysteine pairing not given here; also: linker of formula V (drawing, may hold non-peptide parts) between beta and alpha moieties
As for B3, in test [1], the “efficacy (% maximum signal (Emax) vs. IL-18 in reporter assay)” value is 17% and the “potency (EC50)” value was less than 1000 nM.
For the molecule GGCPNWLSDHLSEIWCGG-biotin (cysteine pairing not given here) [C-terminally biotinylated form of peptide 5C09], the binding result in test [3] is on record as “no binding (tested: 100 nM)”.

B4: biotinylated beta family 2 synthetic construct (peptide)
peptide: GGLCWYFGGTVRGPCLGG-biotin
modifications: cysteine pairing not given here
notes: also called bn-beta family 2 synthetic construct
For the molecule B4, in test [3], the binding result is reported as “no binding (tested: 100 nM)”.

B5: biotinylated alpha synthetic F1a Consensus Construct (peptide)
peptide: GGELCWRPFSFVDCEEGG-biotin
modifications: cysteine pairing not given here
notes: also called bn-alpha synthetic F1a Consensus Construct; alpha synthetic F1 peptide, C-terminal biotinylated form
B5: in test [3], the binding result was “no binding (tested: 100 nM)”.
Take B6: the “IC50, inhibition of IL-18 bioactivity in HEK-BLUE IL-18 reporter assay” value in test [4] was roughly 1 nM.
GGICWVPFHYLDELMCTGG-biotin (cysteine pairing not given here, also called bn4D07) [biotinylated 4D07]: the binding result in test [3] was “no binding (tested: 100 nM)”.
